Results taken from the supplement of paper PMC6757056.
± gives the standard deviation of the averaged measurements.

B1: library; a variant is named by its letters at N, in order (parent)
chain: GCUGUCACCGGAAUACCAGCAUCGUCUUGAUGCCCUUGGAAGUCCGGUCUGAUGAGUCCNNNNNGGACGAAACAGC

Legend:
[1] = variants of: B1; test: FACS-Seq fitted mean relative fluorescence mCherry/BFP without ligand (log10 relative fluorescence); higher = higher reporter protein expression; conditions: HEK293T, ligand present: no
Outline: (§1)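 After lentiviral transduction, HEK293T library cells bearing an mCherry ribozyme-switch reporter and an EF1α-BFP marker were enriched. They were then held for 48 h with or without ligand and sorted by mCherry/BFP into 6 bins, and each bin's genomic DNA was PCR-amplified, barcoded and MiSeq-sequenced. Fluorescence is expressed as a normalized fitted mean: the normal mean of log10(mCherry/BFP) bin counts, scaled to five spiked-in control ribozymes.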

[2] = variants of: B1; test: normalized RNA/DNA level with ligand (relative to sTRSVctl = 100) (log10 (% of sTRSVctl)); higher = less ribozyme self-cleavage, higher mRNA level; conditions: ligand concentration (+) RNA-Seq: 5 mM, HEK293T, reporter: mCherry (pCS4076), ligand present: yes
Outline: (§2)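 Only sequences with at least 100 DNA reads were analyzed, from HEK293T cells transfected with 4 µg per 6-well well of ribozyme switch library plasmids 72 h before RNA extraction with EDTA. Any ligand was added 1 h before transfection. RNA level was defined as RNA over DNA reads, normalized to a spiked-in non-cleaving sequence or to the top sequences, then scaled and log-transformed. The top set was 25 sequences, and the scaling was ×100 followed by log10.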

[3] = variants of: B1; test: normalized RNA/DNA level without ligand (relative to sTRSVctl = 100) (log10 (% of sTRSVctl)); higher = less ribozyme self-cleavage, higher mRNA level; conditions: HEK293T, reporter: mCherry (pCS4076), ligand present: no
Outline: as §2

[4] = variants of: B1; test: FACS-Seq fitted mean relative fluorescence mCherry/BFP with ligand (log10 relative fluorescence); ligand concentration (+) FACS-Seq: 1 mM; higher = higher reporter protein expression; conditions: HEK293T, ligand present: yes
Outline: as §1

## GAUGU
[1]
  FACS-Seq fitted mean (log10): 0.101 ± 0.097
[2]
  normalized RNA/DNA level with ligand (log10): 1.88 ± 0.052
[3]
  normalized RNA/DNA level without ligand (log10): 1.71 ± 0.099
[4]
  FACS-Seq fitted mean (log10): 0.375 ± 0.068

## CCGGA
[1]
  FACS-Seq fitted mean (log10): 0.978 ± 0.089
[2]
  normalized RNA/DNA level with ligand (log10): 2.08 ± 0.027
[3]
  normalized RNA/DNA level without ligand (log10): 1.9 ± 0.044
[4]
  FACS-Seq fitted mean (log10): 1.05 ± 0.15

## ACGCC
[1]
  FACS-Seq fitted mean (log10): 1.08 ± 0.17
[2]
  normalized RNA/DNA level with ligand (log10): 1.95 ± 0.074
[3]
  normalized RNA/DNA level without ligand (log10): 1.94 ± 0.19
[4]
  FACS-Seq fitted mean (log10): 0.984 ± 0.017

## ACGCG
[1]
  FACS-Seq fitted mean (log10): 1.002 ± 0.0074
[2]
  normalized RNA/DNA level with ligand (log10): 2.009 ± 0.009
[3]
  normalized RNA/DNA level without ligand (log10): 1.86 ± 0.036
[4]
  FACS-Seq fitted mean (log10): 1.09 ± 0.058

## ACGCU
[1]
  FACS-Seq fitted mean (log10): 0.995 ± 0.016
[2]
  normalized RNA/DNA level with ligand (log10): 2.08 ± 0.17
[3]
  normalized RNA/DNA level without ligand (log10): 1.914 ± 0.019
[4]
  FACS-Seq fitted mean (log10): 1.01 ± 0.031

## ACGCA
[1]
  FACS-Seq fitted mean (log10): 0.6839 ± 0.0046
[2]
  normalized RNA/DNA level with ligand (log10): 1.99 ± 0.053
[3]
  normalized RNA/DNA level without ligand (log10): 1.77 ± 0.03
[4]
  FACS-Seq fitted mean (log10): 0.824 ± 0.049

## CAUUU
[1]
  FACS-Seq fitted mean (log10): 0.805 ± 0.079
[2]
  normalized RNA/DNA level with ligand (log10): 2.1059 ± 0.00056
[3]
  normalized RNA/DNA level without ligand (log10): 1.74 ± 0.12
[4]
  FACS-Seq fitted mean (log10): 0.945 ± 0.13

## CAUUA
[1]
  FACS-Seq fitted mean (log10): 0.275 ± 0.06
[2]
  normalized RNA/DNA level with ligand (log10): 1.851 ± 0.011
[3]
  normalized RNA/DNA level without ligand (log10): 1.22 ± 0.14
[4]
  FACS-Seq fitted mean (log10): 0.761 ± 0.12

## CCACC
[1]
  FACS-Seq fitted mean (log10): 0.788 ± 0.091
[2]
  normalized RNA/DNA level with ligand (log10): 1.99 ± 0.087
[3]
  normalized RNA/DNA level without ligand (log10): 1.97 ± 0.061
[4]
  FACS-Seq fitted mean (log10): 0.739 ± 0.01

## CCACA
[1]
  FACS-Seq fitted mean (log10): 0.241 ± 0.0081
[2]
  normalized RNA/DNA level with ligand (log10): 1.97 ± 0.022
[3]
  normalized RNA/DNA level without ligand (log10): 1.75 ± 0.096
[4]
  FACS-Seq fitted mean (log10): 0.47 ± 0.086

## CCACU
[1]
  FACS-Seq fitted mean (log10): 0.682 ± 0.012
[2]
  normalized RNA/DNA level with ligand (log10): 2.01 ± 0.059
[3]
  normalized RNA/DNA level without ligand (log10): 1.76 ± 0.16
[4]
  FACS-Seq fitted mean (log10): 0.818 ± 0.014

## GAUUG
[1]
  FACS-Seq fitted mean (log10): 0.498 ± 0.059
[2]
  normalized RNA/DNA level with ligand (log10): 1.98 ± 0.1
[3]
  normalized RNA/DNA level without ligand (log10): 1.75 ± 0.12
[4]
  FACS-Seq fitted mean (log10): 0.711 ± 0.017

## GAUUU
[1]
  FACS-Seq fitted mean (log10): 0.1728 ± 0.00021
[2]
  normalized RNA/DNA level with ligand (log10): 2.05 ± 0.067
[3]
  normalized RNA/DNA level without ligand (log10): 1.78 ± 0.12
[4]
  FACS-Seq fitted mean (log10): 0.28 ± 0.031

## ACGGA
[1]
  FACS-Seq fitted mean (log10): 0.425 ± 0.14
[2]
  normalized RNA/DNA level with ligand (log10): 1.95 ± 0.02
[3]
  normalized RNA/DNA level without ligand (log10): 1.66 ± 0.073
[4]
  FACS-Seq fitted mean (log10): 0.602 ± 0.1

## ACGGC
[1]
  FACS-Seq fitted mean (log10): 1.25 ± 0.15
[2]
  normalized RNA/DNA level with ligand (log10): 1.97 ± 0.059
[3]
  normalized RNA/DNA level without ligand (log10): 1.97 ± 0.067
[4]
  FACS-Seq fitted mean (log10): 1.17 ± 0.014

## CCCAU
[1]
  FACS-Seq fitted mean (log10): 0.699 ± 0.08
[2]
  normalized RNA/DNA level with ligand (log10): 1.97 ± 0.028
[3]
  normalized RNA/DNA level without ligand (log10): 1.901 ± 0.019
[4]
  FACS-Seq fitted mean (log10): 0.822 ± 0.04

## CCCAC
[1]
  FACS-Seq fitted mean (log10): 0.775 ± 0.051
[2]
  normalized RNA/DNA level with ligand (log10): 1.975 ± 0.011
[3]
  normalized RNA/DNA level without ligand (log10): 1.95 ± 0.061
[4]
  FACS-Seq fitted mean (log10): 0.711 ± 0.051

## CCCAA
[1]
  FACS-Seq fitted mean (log10): 0.563 ± 0.0093
[2]
  normalized RNA/DNA level with ligand (log10): 2.012 ± 0.0096
[3]
  normalized RNA/DNA level without ligand (log10): 1.82 ± 0.13
[4]
  FACS-Seq fitted mean (log10): 0.684 ± 0.021
